Measurements taken from paper PMC6286341, “The reduced activity of PP-1α under redox stress condition is a consequence of GSH-mediated transient disulfide formation” (Scientific Reports, 2018).

Molecular target: the molecule itself
Assay: disulfide-linked peptides by LC-MS/MS (cross-over-read search); non-treated bovine SOD1, filter-aided sample preparation, trypsin/chymotrypsin digest

B1: bovine superoxide dismutase 1 (SOD1) (enzyme)
chain: not shown
modifications: N-terminal acetylation (N-terminally acetylated Cys7 peptides)
notes: superoxide dismutase 1, bovine; 3 Cys residues Cys7, Cys56 and Cys145; also called bovine SOD1; source: bought: Sigma Aldrich S7571
  binding result: binds
